Results published in paper PMC9704045.
Like-named read-outs stand apart in the source and are kept apart here.

Experiments:
[1] = molecular target: wild-type HexaPro (D614) SARS-CoV-2 spike trimer (SARS-CoV-2); assay: BLI; Octet Red384; […]; analyte ([…]; HBS-EP+ buffer; 1:1 binding model
[2] = molecular target: wild-type HexaPro (D614) SARS-CoV-2 spike trimer (SARS-CoV-2); assay: as above; remark: listed apart in the source

## cilgavimab (AZD1061), full-length IgG (antibody)
[1]
  Kd: < 0.001 nM
[2]
  Kd: 0.669 nM
